# Reference: the nanobody polyreactivity screen of Harvey et al. (2022)
# Assay: yeast display, Sf9 membrane polyspecificity reagent, FACS + sequencing; frameworks hold sequencing errors
# In short: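 A synthetic nanobody library was expressed on Saccharomyces cerevisiae BJ5465 by galactose induction for 36–48 hours. The library was stained for 1 hour at 4 °C with 10% biotinylated, detergent-solubilized Sf9 membrane reagent and enriched with streptavidin microbeads before FACS. Low and high (top ~1%) gates were set on anti-HA fluorescence for expression and streptavidin fluorescence for reagent binding, and each polyreactivity label reflects the gate of origin.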
row,Sequence,polyreactivity (PSR sort gate)
1,QVQLVESGGGLVQAGGSLRLSCAASGFIFDSYAMGWYRQAPGKERELVAAISDGSSTYADSVKGRFTISRDNAKNTVYLQMNSLKPEDTAVYYCAAGVSTWWSTYDYWGQGTQVTVSS,high polyreactivity
2,QVQLVESGGGLVQAGGSLRLSCAASGFIFDTYAMGWYRQAPGKERELVAAISWTGTDTYYADSVKGRFTISRDNAKNTVYLQMNSLKPEDTAVYYCAARSRYKYSPSGDYWGQGTQVTVSS,high polyreactivity
3,QVQLVESGGGLVQAGGSLRLSCAASGFIFDVYAMGWYRQAPGKERELVAAISVSSTNYADSVKGRFTISRDNAKNTVYLQMNSLKPEDTAVYYCAADTYTYFLASYLYGQYDYWGQGTQVTVSS,low polyreactivity
4,QVQLVESGGGLVQAGGSLRLSCAASGFIFDVYAMGWYRQAPGKERELVAAITSGDGTNYADSVKGRFTISRDNAKNTVYLQMNSLKPEDTAVYYCAADYGVTYRGIIFSYWGQGTQVTVSS,low polyreactivity
5,QVQLVESGGGLVQAGGSLRLSCAASGFIFDVYAMGWYRQAPGTERELVAAITSGDGTNYADSVKGRFTISRDNAKNTVYLQMNSLKPEETAVYYCAADDGVTYRGIIFSYWGQGTQVTVSS,low polyreactivity
6,QVQLVESGGGLVQAGGSLRLSCAASGFIFDWYAMGSYSQAPGKEREFVAAINWSGGSTYYADSVKGRFTISRDNAKNTVYLQMNSLKPEDTAVYYCAAYRPYSSSEGVYWGQGTQVTVSS,high polyreactivity
7,QVQLVESGGGLVQAGGSLRLSCAASGFIFDYNTMGWYRQEPGKERELVADISGGGGRTYYADSVKGRFTISRDNAKNTVYLQMNSLKPEDTAVYYCAALGYYHHAWWISYDYWGQGTQVTVSS,low polyreactivity
8,QVQLVESGGGLVQAGGSLRLSCAASGFIFDYYAMGWYRQAPGKEREFVAAITWDGGSTYYADSVKGRFTISRDNAKNTVYLQMNSLKPEDTAVYYRAAETWGEYGYWGQGTQVTVSS,low polyreactivity
9,QVQLVESGGGLVQAGGSLRLSCAASGFIFDYYAMGWYRQAPGKERELVAAITSRSGSTYYADSVKGRFTISRDNAKNTVYLQMNSLKPEDTAVYYCAARRARRDPVGYVYAKYGYWGQGTQVTVSS,high polyreactivity
10,QVQLVESGGGLVQAGGSLRLSCAASGFIFEGYAMGWYRQAPGKERELVATISRSGGRTNYADSVKGRFTISRDNAKNTVYLQMNSLKPEDTAVYYCAAAYLRRVAYDYWGQGTQVTVSS,high polyreactivity
11,QVQLVESGGGLVQAGGSLRLSCAASGFIFETNAMGWYRQAPGKERELVAAISSRGGSTYYADSVKGRFTISRDNAKNTVYLQMNSLKPEDTAVYYCAAKLVVSYGQEYDYWGQGTQVTVSS,low polyreactivity
12,QVQLVESGGGLVQAGGSLRLSCAASGFIFFTYAMGWYRQAPGKERELVADISSRGGSTYYADSVKGRFTISRDNAKNTVYLQMNSLKPEDTAVYYCARTRFWLRYRLFDYWGQGTQVTVSS,low polyreactivity
13,QVQLVESGGGLVQAGGSLRLSCAASGFIFFTYAMGWYRQAPGKVRELVAAITSRGGRTYYADSVKGRFTISRDNAKNTVYLQMNILKPEDTAVYYCAVDPVRRYRYDYWGQGTQVTVSS,low polyreactivity
14,QVQLVESGGGLVQAGGSLRLSCAASGFIFFYNAMGWYRQAPGKERELVAAISARGGSTYYADSVKGRFTISRDNAKNTVYLQMNSLKPEDTAVYYCNAVFPWPYVSRSIYWYYWGQGTQVTVSS,high polyreactivity
15,QVQLVESGGGLVQAGGSLRLSCAASGFIFGANAMGWYRPAPGKERELVASINGSGGSTFYADSVKGRFTISRDNAKNTVYLQMNSLNPEDTAVYYCAAPCFCWFTTGGYYYWGQGTQVTVSS,low polyreactivity
16,QVQLVESGGGLVQAGGSLRLSCAASGFIFGAYAMGWYRQAPGKERELVAALSSRGGNTYYADSVKGRFTISRDNAKNTVYLQMNSLKPEDTAVYYCNAVGYARYLYVPPPYDYWGQGTQVTVSS,high polyreactivity
17,QVQLVESGGGLVQAGGSLRLSCAASGFIFGFNAMGWYRQAPGKERELVAVISARGGRTYYADSVKGRFTISRDNAKNTVYLQMNSLKPEDTAVYYCAADDFFRYFFTHWVGDDYWGQGTQVTVSS,low polyreactivity
18,QVQLVESGGGLVQAGGSLRLSCAASGFIFGFYAMGWYRQAPGKERELVAAISGGGGRTNYADSVKGRFTISRDNAKNTVYLQMNSLKPEDTAVYYCARSPSYYSYTFGRQAYGNDYWGQGTQVTVSS,high polyreactivity
19,QVQLVESGGGLVQAGGSLRLSCAASGFIFGHNTMGWYRQAPGKERELVARITSSGGGTNYADSVKGRFTISRDNAKNTVYLQMNSLKPEDTAVYYCAAELLYWGYYDYDYWGQGTQVTVSS,high polyreactivity
20,QVQLVESGGGLVQAGGSLRLSCAASGFIFGHYAMGWYRPAPGKERELVAGINSSGGSTHYADSVKGRFTISRDNAKNTVYLQMNSLKPEDTAVYYCAADVYRYYAGSRYYYWGQGTQVTVSS,low polyreactivity
21,QVQLVESGGGLVQAGGSLRLSCAASGFIFGINAMGWSRQAPGKERELVAAISRSGGRTYYADSVKGRCTISRDNAKNTVYLQMNSLKPEDTAVYYCAADKASYTNYDGDSWGQGTQVTVSS,high polyreactivity
22,QVQLVESGGGLVQAGGSLRLSCAASGFIFGINAMGWYRQAPGKERELVATITSGGGTNYADSVKGRFTISRDNAKNTVYLQMNSLKPEDTAVYYCAAEEDYIYFYVSMDYWGQGTQVTVSS,low polyreactivity

row,Sequence,polyreactivity (PSR sort gate)
1,QVQLVESGGGLVQAGGSLRLSCAASGFIFGIYAMGWYRQAPGKEREFVAAMTGSAGSTYYADSVKGRFTISRDNAKNTVYLQMNSLKPEDTAVYYCAAVLRTHRYGGYNYWGQGTQVTVSS,low polyreactivity
2,QVQLVESGGGLVQAGGSLRLSCAASGFIFGIYAMGWYRQAPGKERELVAAISWRGDSTYYADSVKGRFTISRDNAKNTVYLQMNSLKPEDTAVYYCAAVYYKLVGWYSYRYGYWGQGTQVTVSS,low polyreactivity
3,QVQLVESGGGLVQAGGSLRLSCAASGFIFGLNAMGWYRPAPGKERELVAAIRSASSTNYADSVKGRFTISRDNAKNTVYLQMNSVKPEDTAVYYCAAEYVTYQQGFWGYDYWGQGTEVTVSS,low polyreactivity
4,QVQLVESGGGLVQAGGSLRLSCAASGFIFGPNAMGWYIQAPGKERELVAAITWSSGRTYYADSVKGRFTISRDNAKNTVYLQMNSLKPEDTAVYYCAADFSRAVLRGNYWGQGTQVTVSS,high polyreactivity
5,QVQLVESGGGLVQAGGSLRLSCAASGFIFGPYAMGWYRQAPGKERELVASISWSGGRTYYADSVKGRFTISRDNAKNTVYLQMNSLKPEDTAVYYCAADLPVIRGYRSNRFGYWGQGTQVTVSS,high polyreactivity
6,QVQLVESGGGLVQAGGSLRLSCAASGFIFGQYAMGWSRQAPGKERELVAAISESGGRTYYADSVKGRFTISRDNAKNTVYLQMNSLKPEDTAVYYCAADKSKYRAFDYWGQGTQVTVSS,high polyreactivity
7,QVQLVESGGGLVQAGGSLRLSCAASGFIFGQYAMGWSRQAPGKERELVAAISSVGTTNYADSVKGRFTISRDNAKNTVYLQMNSLKPEDTAVYYCNAPVFYYWDYSYFPYEVDYWGQGTQVTVSS,low polyreactivity
8,QVQLVESGGGLVQAGGSLRLSCAASGFIFGRNAMGWYRQAPGKERELVAGISSRGGRTYYADSVKGRFTISRDNAKNTVYLQMNSLKPEDTAVYYCAAAGLTDYVRYDYWGQGTQVTVSS,high polyreactivity
9,QVQLVESGGGLVQAGGSLRLSCAASGFIFGRYAMGWYRQAPGKERELVAAISKTGGRTYYADSVKGRFTISRDNAKNTVYLQMNSLKPEDTAVYYCAAVYKRGMDYWGQGTEVTVSS,high polyreactivity
10,QVQLVESGGGLVQAGGSLRLSCAASGFIFGRYAMGWYRQAPGKERELVAAISRSGGSTHYADSVKGRFTISRDNAKNTVYLQMISLKPEDTAVYYCAAVWPFDRSRMDYWGQGTQVTVSS,high polyreactivity
11,QVQLVESGGGLVQAGGSLRLSCAASGFIFGSNAMGWYRQAPGKERELVAAISRSGGSTYYADSVKGRFTISRDNAKNTVYLQMNSLKPEDTAVYYCNVDLWPFVYSWWSYDYWGQGTQVTVSS,high polyreactivity
12,QVQLVESGGGLVQAGGSLRLSCAASGFIFGSNAMGWYRQAPGKERELVAAISRSGGSTYYADSVKGRFTISRDNAKNTVYLQMNSLKPEDTAVYYCNVVLWPFVYSWWSYDYWGQGTQVTVSS,high polyreactivity
13,QVQLVESGGGLVQAGGSLRLSCAASGFIFGSYAMGWYRQAPGKERELVAAISYRGGTTYYADSVKGRFTISRDNAKNTVYLQMNSLKPEDTAVYYCAADSPENRYNYWGQGTQVTLSS,high polyreactivity
14,QVQLVESGGGLVQAGGSLRLSCAASGFIFGTNAMGWYRQAPGKERELVAAITSRGGSTYYADSVKGRFTISRDNAKNTVYLQMNSLKPEDTAVYYCAADKPRSYYYWGQGTQVTVSS,high polyreactivity
15,QVQLVESGGGLVQAGGSLRLSCAASGFIFGTYAMGWYRPAPGKERELVAAITSGGSTYYADSVKGRFTISRDNAKNTVYLQMNSLKPEDTAVYYCAKYHWRLSFSRYPYDYWGQGTQVTVSS,high polyreactivity
16,QVQLVESGGGLVQAGGSLRLSCAASGFIFGTYAMGWYRQAPGKEREFVAAINWGGGRTYYADSVKGRFTISRDNAKNTVYLQMNSLKPEDTAVYYCNKRLIYYRGTYYSRRFDYWGQGTQVTVSS,high polyreactivity
17,QVQLVESGGGLVQAGGSLRLSCAASGFIFGVNAMGWYRQAPGKERELVAAITSTGGRTYYADSVKGRFTISRDNAKNTVYLQMNSLKPEDTAVYYCNKRYRDQYGYDYWGQGTQVTVSS,high polyreactivity
18,QVQLVESGGGLVQAGGSLRLSCAASGFIFGVYAMGWYRQAPGKERELVAAITGRAASTYYADSVKGRFTISRDNAKNTVYLQMNSLKPEDTAVYYCAARKRYRPGERYEYWGQGTQVTVSS,high polyreactivity
19,QVQLVESGGGLVQAGGSLRLSCAASGFIFGVYAMGWYRQAPGKERELVARITYGGGSTYYADSVKGRFTISRDNAKNTVYLQMNSLKPEDTAVYYCAAASWSYPYYYWGQGTQVTVSS,high polyreactivity
20,QVQLVESGGGLVQAGGSLRLSCAASGFIFGVYAMGWYRQAPGNERELVAAISGSGGTTYYADSVKGRFTISRDNAKNTVYLQMNSQKPEDTAVYYCNAAYRVRYIVNYDYWGQGTQVTVSS,low polyreactivity
21,QVQLVESGGGLVQAGGSLRLSCAASGFIFGVYDMGWYRQAPGKERELVAAIDSVGSTYYADSVKGRFTISRDNAKNTVYFQMNSLKPEDTAGYYCNAARSRLYYVKYYYWGQGTQVTVSS,low polyreactivity
